This assay deals with NTP receptor on human neutrophils (human). Briefly: saturation curve and Scatchard-like analysis of 125I-NTP-Y binding to human neutrophils.

Ends that are not written are not given here. * marks the point of attachment. 125I = [125I]*

Y(125I)RRPESKATNATLDPR [125I-labeled NTP-Y (human Neutrophil Targeting Peptide synthesized with an N-terminal tyrosine)] showed an NTP receptors per cell (receptors per cell) of 3000.

Source of the values: patent US20020032314A1.
